Source: FireProtDB (doi:10.1016/s0301-4622(99)00140-4)

Details: Bos taurus, pH 8, Thermal, DSC, Tris 10 mM, whole UniProt chain shown

B1: Alpha-lactalbumin wild type, P00711 (protein)
chain: MMSFVSLLLVGILFHATQAEQLTKCEVFRELKDLKGYGGVSLPEWVCTTFHTSGYDTQAIVQNNDSTEYGLFQINNKIWCKDDQNPHSSNICNISCDKFLDDDLTDDIMCVKKILDKVGINYWLAHKALCSEKLDQWLCEKL
With B1 the Tm (CaCl2 0.0 mM) was 64.1 °C, the “unfolding enthalpy (calorimetric)” value (CaCl2 0.0 mM) was 64.8 kcal/mol and the Tm (CaCl2 0.1 mM) was 65.2 °C. For the same protein, the “unfolding enthalpy (calorimetric)” value (CaCl2 0.1 mM) was 71.1 kcal/mol, the Tm (CaCl2 1.0 mM) was 67.9 °C and the “unfolding enthalpy (calorimetric)” value (CaCl2 1.0 mM) was 75.6 kcal/mol. The Tm (CaCl2 2.0 mM) was 68.9 °C, the “unfolding enthalpy (calorimetric)” value (CaCl2 2.0 mM) was 76 kcal/mol and the Tm (CaCl2 10.0 mM) was 70 °C. For the same protein, the “unfolding enthalpy (calorimetric)” value (CaCl2 10.0 mM) was 75 kcal/mol.
